Assay results from patent US20170327598A1 (published 2017).
Where two headings read alike, the source gives them in different places. Values belong to the binder of their own block, whether it stands above or below them.

Columns and labels:
[1] = biological target: Human recombinant TNF-α (Sigma-Aldrich) (human, UniProt P01375 77-233); experiment: cell-based or functional assay
[2] = biological target: T1, active human TNF-α full length protein (human, UniProt P01375 77-233); experiment: ELISA, wells coated with 0.5 µg/mL TNF-α, sdAb at 1 µg/mL
T1 sequence (P01375 77-233 limits assumed): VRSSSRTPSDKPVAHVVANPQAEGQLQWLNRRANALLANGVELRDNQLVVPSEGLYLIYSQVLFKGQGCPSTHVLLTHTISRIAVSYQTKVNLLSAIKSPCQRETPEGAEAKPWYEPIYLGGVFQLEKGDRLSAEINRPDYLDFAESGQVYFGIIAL

[3] = biological target: TNF-alpha (U937 cytotoxicity assay of Example 16) (UniProt P01375 77-233, limits assumed); experiment: cell-based or functional assay
Chain of TNF-alpha (U937 cytotoxicity assay of Example 16) (P01375 77-233 limits assumed): as above

[4] = biological target: T1, active human TNF-α full length protein
[5] = biological target: T1, active human TNF-α full length protein; remark: listed apart in the source
[6] = biological target: T1, active human TNF-α full length protein; remark: listed apart in the source
[7] = biological target: T1, active human TNF-α full length protein; remark: listed apart in the source
[8] = biological target: T1, active human TNF-α full length protein; remark: listed apart in the source
[9] = biological target: T1, active human TNF-α full length protein; remark: listed apart in the source
[10] = biological target: T1, active human TNF-α full length protein; remark: listed apart in the source
[11] = biological target: T1, active human TNF-α full length protein; remark: listed apart in the source
[12] = biological target: T1, active human TNF-α full length protein; remark: listed apart in the source
[13] = biological target: T1, active human TNF-α full length protein; remark: listed apart in the source
[14] = biological target: T1, active human TNF-α full length protein; remark: listed apart in the source
[15] = biological target: T1, active human TNF-α full length protein; remark: listed apart in the source
STAT 2 protein [16] = biological target: T2, STAT 2 protein (UniProt P52630 1-851, limits assumed); experiment: sandwich ELISA, STAT protein coated at 0.5 µg/mL
T2 sequence (P52630 whole entry): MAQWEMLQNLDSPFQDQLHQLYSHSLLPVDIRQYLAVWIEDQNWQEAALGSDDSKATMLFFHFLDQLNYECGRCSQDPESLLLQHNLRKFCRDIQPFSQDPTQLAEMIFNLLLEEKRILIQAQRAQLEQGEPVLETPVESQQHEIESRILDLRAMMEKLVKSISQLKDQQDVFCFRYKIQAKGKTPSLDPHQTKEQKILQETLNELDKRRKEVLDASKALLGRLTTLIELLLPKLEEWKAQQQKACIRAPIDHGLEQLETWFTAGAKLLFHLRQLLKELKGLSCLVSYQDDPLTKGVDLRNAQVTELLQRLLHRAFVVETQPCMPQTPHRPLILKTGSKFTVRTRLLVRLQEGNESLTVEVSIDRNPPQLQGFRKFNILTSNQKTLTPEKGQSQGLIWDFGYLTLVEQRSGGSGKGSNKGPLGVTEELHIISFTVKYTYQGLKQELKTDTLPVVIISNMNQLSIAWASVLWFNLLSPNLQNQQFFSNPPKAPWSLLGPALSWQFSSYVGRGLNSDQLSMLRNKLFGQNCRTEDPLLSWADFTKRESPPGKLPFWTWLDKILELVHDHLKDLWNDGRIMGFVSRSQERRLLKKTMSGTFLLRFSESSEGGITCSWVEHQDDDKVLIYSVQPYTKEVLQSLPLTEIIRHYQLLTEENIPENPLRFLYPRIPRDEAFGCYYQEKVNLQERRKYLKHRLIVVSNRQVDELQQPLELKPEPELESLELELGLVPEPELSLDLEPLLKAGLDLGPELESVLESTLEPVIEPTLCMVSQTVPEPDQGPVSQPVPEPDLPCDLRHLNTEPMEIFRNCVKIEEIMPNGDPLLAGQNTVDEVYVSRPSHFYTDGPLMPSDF

STAT 1 protein [17] = biological target: T3, STAT 1 protein (UniProt P42224 1-750, limits assumed); experiment: sandwich ELISA, STAT protein coated at 0.5 µg/mL
T3 sequence (looked up): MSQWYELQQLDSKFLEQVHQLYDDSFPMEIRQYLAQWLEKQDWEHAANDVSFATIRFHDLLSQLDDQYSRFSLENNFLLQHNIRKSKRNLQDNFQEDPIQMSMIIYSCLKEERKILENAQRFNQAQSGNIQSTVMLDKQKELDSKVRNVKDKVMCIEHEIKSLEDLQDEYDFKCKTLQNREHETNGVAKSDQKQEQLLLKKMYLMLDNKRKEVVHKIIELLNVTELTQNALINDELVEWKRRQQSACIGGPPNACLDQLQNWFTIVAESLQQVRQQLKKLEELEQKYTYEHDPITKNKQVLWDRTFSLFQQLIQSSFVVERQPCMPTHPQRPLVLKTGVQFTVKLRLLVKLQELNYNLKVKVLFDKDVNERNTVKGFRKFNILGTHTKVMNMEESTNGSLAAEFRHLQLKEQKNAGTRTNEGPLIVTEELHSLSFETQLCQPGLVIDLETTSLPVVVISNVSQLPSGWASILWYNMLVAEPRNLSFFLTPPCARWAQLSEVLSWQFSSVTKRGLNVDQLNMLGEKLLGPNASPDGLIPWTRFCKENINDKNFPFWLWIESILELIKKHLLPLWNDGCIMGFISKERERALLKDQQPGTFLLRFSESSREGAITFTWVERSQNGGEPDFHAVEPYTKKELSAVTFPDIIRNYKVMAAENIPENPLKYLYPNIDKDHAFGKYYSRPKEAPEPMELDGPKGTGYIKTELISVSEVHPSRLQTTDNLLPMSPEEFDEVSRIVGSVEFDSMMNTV

STAT 5a protein [18] = biological target: T4, STAT 5a protein (UniProt P42229 1-794, limits assumed); experiment: sandwich ELISA, STAT protein coated at 0.5 µg/mL
T4 sequence (looked up): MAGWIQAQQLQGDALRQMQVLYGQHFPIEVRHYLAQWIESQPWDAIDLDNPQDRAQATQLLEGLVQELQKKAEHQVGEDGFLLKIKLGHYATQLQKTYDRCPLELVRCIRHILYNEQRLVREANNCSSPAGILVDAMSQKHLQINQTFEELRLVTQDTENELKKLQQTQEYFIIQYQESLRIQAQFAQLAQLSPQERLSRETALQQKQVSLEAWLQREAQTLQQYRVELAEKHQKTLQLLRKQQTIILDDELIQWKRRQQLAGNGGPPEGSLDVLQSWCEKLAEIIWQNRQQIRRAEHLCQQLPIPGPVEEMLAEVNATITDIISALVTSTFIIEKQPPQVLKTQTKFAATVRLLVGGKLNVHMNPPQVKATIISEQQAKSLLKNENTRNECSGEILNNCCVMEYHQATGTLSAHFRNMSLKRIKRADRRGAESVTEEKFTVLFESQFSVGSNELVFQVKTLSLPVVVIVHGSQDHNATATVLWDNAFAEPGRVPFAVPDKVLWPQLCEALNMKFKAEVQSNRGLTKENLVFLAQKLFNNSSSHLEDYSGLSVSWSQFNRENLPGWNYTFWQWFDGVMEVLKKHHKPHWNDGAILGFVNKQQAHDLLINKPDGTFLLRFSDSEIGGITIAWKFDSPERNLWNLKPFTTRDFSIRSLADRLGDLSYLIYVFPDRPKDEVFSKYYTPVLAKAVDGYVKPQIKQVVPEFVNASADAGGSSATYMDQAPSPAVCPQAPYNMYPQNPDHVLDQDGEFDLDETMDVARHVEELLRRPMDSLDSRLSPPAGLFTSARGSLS

STAT 2 protein [19] = biological target: T2, STAT 2 protein; experiment: sandwich ELISA, STAT protein coated at 0.5 µg/mL; remark: listed apart in the source
STAT 1 protein [20] = biological target: T3, STAT 1 protein; experiment: sandwich ELISA, STAT protein coated at 0.5 µg/mL; remark: listed apart in the source
STAT 5a protein [21] = biological target: T4, STAT 5a protein; experiment: sandwich ELISA, STAT protein coated at 0.5 µg/mL; remark: listed apart in the source
STAT 2 protein [22] = biological target: T2, STAT 2 protein; experiment: sandwich ELISA, STAT protein coated at 0.5 µg/mL; remark: listed apart in the source
STAT 1 protein [23] = biological target: T3, STAT 1 protein; experiment: sandwich ELISA, STAT protein coated at 0.5 µg/mL; remark: listed apart in the source
STAT 5a protein [24] = biological target: T4, STAT 5a protein; experiment: sandwich ELISA, STAT protein coated at 0.5 µg/mL; remark: listed apart in the source
STAT 2 protein [25] = biological target: T2, STAT 2 protein; experiment: sandwich ELISA, STAT protein coated at 0.5 µg/mL; remark: listed apart in the source
STAT 1 protein [26] = biological target: T3, STAT 1 protein; experiment: sandwich ELISA, STAT protein coated at 0.5 µg/mL; remark: listed apart in the source
STAT 5a protein [27] = biological target: T4, STAT 5a protein; experiment: sandwich ELISA, STAT protein coated at 0.5 µg/mL; remark: listed apart in the source

Chain of Human recombinant TNF-α (Sigma-Aldrich) (P01375 77-233 limits assumed): as the sequence (P01375 77-233 limits assumed) above

OD450 [2]: 3.86 OD450
B2: anti-TNF-alpha VHH66 (SEQ ID NO:45) sdAb (VHH)
VHH: HVQLVESGGGSVEAGGSLRLSCAASGFRYAAYCMGWFRQADGKEREGVATIDIDGLTTHADSVKGRFTISRDNAKNTLSLQMNDLKPEDTAMYYCAADRDRCGSIWTYAYKYRGQGTLVTVSS

Signal/Noise Ratio [4]: 1.6
Signal/Noise Ratio [5]: 3.7
OD450 [2]: 1.95 OD450
Signal/Noise Ratio [6]: 1.5
Signal/Noise Ratio [7]: 3.2
Signal/Noise Ratio [8]: 1.9
Signal/Noise Ratio [9]: 2.1
Signal/Noise Ratio [10]: 8
Signal/Noise Ratio [11]: 1.3
Signal/Noise Ratio [12]: 5.9
Signal/Noise Ratio [13]: 1.6
Signal/Noise Ratio [14]: 7.5
Signal/Noise Ratio [15]: 2.4
B4: anti-TNF-alpha VHH69 (SEQ ID NO:46) sdAb (VHH)
VHH: EVQLVESGGGSVLAGGSLRLSCVASGFTSRYNYMAWFRQAPGKEREGVATIGTASGSADYYGSVKDRFTISQDNAKNTVYLQMNSLKPEDTAMYYCAARTYGTISLTPSDYRYWGQGTLVTVSS

Mean OD450 (STAT 2 protein [16]): 0.015 OD450
Mean OD450 (STAT 1 protein [17]): 0.056 OD450
Mean OD450 (STAT 5a protein [18]): 0 OD450
Mean OD450 (STAT 2 protein [19]): 0.076 OD450
Mean OD450 (STAT 1 protein [20]): 0.122 OD450
Mean OD450 (STAT 5a protein [21]): 0.158 OD450
Mean OD450 (STAT 2 protein [22]): 0.007 OD450
Mean OD450 (STAT 1 protein [23]): 0.024 OD450
Mean OD450 (STAT 5a protein [24]): 0.017 OD450
Mean OD450 (STAT 2 protein [25]): 0 OD450
Mean OD450 (STAT 1 protein [26]): 0.015 OD450
Mean OD450 (STAT 5a protein [27]): 0 OD450
B7: STAT5-31 (SEQ ID NO:83) sdAb (VHH)
VHH: EVQLVESGGGSVQTGGSLRLSCAASGFPFSSHVMGWFRQAPGKKREGVAAISVDSGSTWYADSVKGRFTISLDSAKNTLYLQMNSLKPEDTAMYYCATRRGVILTLSPETYDYWGQGTQVTVSS

The next lines start with the binder.

B1: anti-TNF-alpha VHH66 (SEQ ID NO:45) sdAb (VHH)
VHH: HVQLVESGGGSVEAGGSLRLSCAASGFRYAAYCMGWFRQADGKEREGVATIDIDGLTTHADSVKGRFTISRDNAKNTLSLQMNDLKPEDTAMYYCAADRDRCGSIWTYAYKYRGQGTLVTVSS
EC50 (inhibition of TNF-α cytotoxicity on L929 cells, Assay 1, Batch A) [1]: 2.9 µg/mL
EC50 (inhibition of TNF-α cytotoxicity on L929 cells, Assay 1, Batch B) [1]: 1.2 µg/mL
EC50 (inhibition of TNF-α cytotoxicity on L929 cells, Assay 1, Batch C) [1]: 2.3 µg/mL
EC50 (inhibition of TNF-α cytotoxicity on L929 cells, Assay 2, Batch B) [1]: 4.5 µg/mL
EC50 (inhibition of TNF-α cytotoxicity on L929 cells, Assay 2, Batch C) [1]: 6.2 µg/mL

B3: anti-TNF-alpha VHH69 (SEQ ID NO:46) sdAb (VHH)
VHH: EVQLVESGGGSVLAGGSLRLSCVASGFTSRYNYMAWFRQAPGKEREGVATIGTASGSADYYGSVKDRFTISQDNAKNTVYLQMNSLKPEDTAMYYCAARTYGTISLTPSDYRYWGQGTLVTVSS
IC50 (inhibition of TNF-alpha cytotoxicity against U937 cells, ATP luminescence) [3]: > 208 µg/mL

B5: anti-TNF-alpha VHH62 (SEQ ID NO:47) sdAb (VHH)
VHH: QVQLVESGGGPVQAGETLRLSCTASGFTFAEADMGWYRQAPGHECELVSTITTEGITSEASSYYADSVRGRFTISRDNAKNMVYLQMNSLKPEDTAVYYCAPDPYAYSTYSDYCSWAQGTQGTLVTVSS
IC50 (inhibition of TNF-alpha cytotoxicity against U937 cells, ATP luminescence) [3]: ~714 µg/mL

B6: anti-TNF-alpha VHH62 (SEQ ID NO:47) sdAb (VHH)
VHH: QVQLVESGGGPVQAGETLRLSCTASGFTFAEADMGWYRQAPGHECELVSTITTEGITSEASSYYADSVRGRFTISRDNAKNMVYLQMNSLKPEDTAVYYCAPDPYAYSTYSDYCSWAQGTQGTLVTVSS
Signal/Noise Ratio [4]: 1.1
Signal/Noise Ratio [5]: 1.5
OD450 [2]: 0.005 OD450
Signal/Noise Ratio [6]: 1.1
Signal/Noise Ratio [7]: 1.5
Signal/Noise Ratio [8]: 1.3
Signal/Noise Ratio [9]: 1.4
Signal/Noise Ratio [10]: 2
Signal/Noise Ratio [11]: 0.9
Signal/Noise Ratio [12]: 1.7
Signal/Noise Ratio [13]: 1.1
Signal/Noise Ratio [14]: 1.9
Signal/Noise Ratio [15]: 1.4
